Source: US9127075B2, “Analgesic active peptide VGG, preparation and use thereof” (priority 2010, dated 2015)
Where two headings read alike, the source gives them in different places.

Columns and labels:
[1] = system: mouse twisting model induced by acetic acid; type: in vivo
Experimental: 1. In Vivo Analgesic Activity in Mouse Twisting Model Induced by Acetic Acid.
In mouse twisting model: The glacial acetic acid as the chemical irritant is injected into the mouse stomach, which causes a deep and large area and lasting pain stimulus for animal which has a “twist body” reaction, such as abdominal cove, torso and legs spread out, hip high up.
Equal numbers of male and female mice, whose weight were about […], were divided into groups by random. Each group consisted of eight mice. 0.2 ml/20 g of 0.6% (v/v) of acetic acid, which caused visceral pain, was intraperitoneally injected after the test sample was injected into the stomach of mouse for 20 minutes. The writhing times of the mouse were recorded for 10 min after the acetic acid was injected for 5 min. […] The inhibition of writhing response inhibition for each test group was calculated by the following formula: […]

[2] = system: mouse hot plate analgesic method; experiment: In vivo assay of analgesic activity, hot plate method of mice; conditions: 0.1 mg/kg i.v. via tail, hot plate 55±0.5° C.; for B, average response time after medicine taken: before 21 ± 4.2 s
Experimental: 2. In Vivo Assay of Analgesic Activity—Hot Plate Method of Mice
This example is used to verify the in vivo biological activity for the analgesic activity of analgesic active peptide VGG with […].
The mouse hot plate analgesic method: the female mice with weight from 18 g to 22 g were put a hot plate at temperature of 55±0.5° C. which was maintained by a water bath. The licking times were recorded plate as the pain threshold of mouse after it was put onto the hot plate. The pain threshold between 10-30 seconds was considered to be qualified for experiments. The qualified mice were divided into groups by random. The normal pain reaction time of mouse was determined for two times. The mean of the pain threshold (B) was calculated before medicine was taken. The analgesic active peptide VGG (dosage of 0.1 mg/kg (test sample/mouse weight) was intravenously injected via tail. The normal saline was used as control group. The pain reaction time was recorded as one at 15, 30, 45, 60 […] after the test sample was taken. The mouse was immediately taken out if it had no pain response on the hot plate in 60 seconds. The 60 seconds as a calculation unit, the pain threshold increasing percentage was calculated by the following formula: A=(B−C)/C×100% • A—Pain threshold increasing percentage • B—Average response time after medicine taken • C—Average response time before medicine taken

B1: analgesic active peptide VGG (protein, listed as Mesobuthus martensi)
chain: VKDGYIADDRNCPYFCGRNAYCDGECKKNRAESGYCQWASKYGNACWCYKLPDDARIMKPGRCNGG
inhibition of the animal writhing ([1]; purest analgesic active peptide VGG, dosage 0.1 mg/kg): ≥ 60% | inhibition of the animal writhing ([1]; various purity, isolated from scorpion venom or scorpion tails or scorpion body, dosage 0.1 mg/kg-1.0 mg/kg): ≥ 50% | A, pain threshold increasing percentage ([2]; 10 min): 128% | B, average response time after medicine taken ([2]; 10 min): 48 ± 3.2 s | A, pain threshold increasing percentage ([2]; 15 min): 138% | B, average response time after medicine taken ([2]; 15 min): 50 ± 5.1 s | A, pain threshold increasing percentage ([2]; 30 min): 114% | B, average response time after medicine taken ([2]; 30 min): 45 ± 3.7 s | A, pain threshold increasing percentage ([2]; 45 min): 100% | B, average response time after medicine taken ([2]; 45 min): 42 ± 6.9 s | A, pain threshold increasing percentage ([2]; 60 min): 90% | B, average response time after medicine taken ([2]; 60 min): 40 ± 3.5 s
